# Source: US20080206136A1 (University of Pennsylvania, published 2008)
# Bridges are numbered along the chain shown (N, C = ends). Where no end group is shown, it is not given here.
# Molecular target: T1, Her2 (UniProt P04626 23-652, limits assumed)
# T1 construct: also called Her2/neu; Neu
# Assay: method not stated; affinity for Her2
binder,measurement,value
"FCDGFYACYMDV (disulfide 2-8 (inferred), also called anti-Her2 peptide) [AHNP peptide]",Kd,0.35 µM
